# Source: US5340925A, “Normal human growth regulatory receptor for TGF-β” (Oncogen, priority 1992, dated 1994)
# Read-outs that look alike come from different tables or passages of the source.
# Tests used:
# [1] = test system: HEPM cells; experiment: Growth stimulation assay: incorporation of 5-[125I]iodo-2'-deoxyuridine into DNA of quiescent HEPM cells; type: cell-based, human; details: 66 h + 6 h radionuclide label
# Protocol: FIGS. 1(A) and 1(B) Bioactivity of TGF-β on HEPM cells: incorporation of radionuclide into DNA. Results are presented as percent stimulation vs the picomolar (pM) concentration of TGF-β. Percent stimulation was calculated as follows: treated (cpm)-untreated (cpm)/untreated (cpm) x 100. Panel A: TGF-β1, treatment. Panel B: TGF-β2 treatment.
# HEPM cells (5,000 cells/50 μl ) were subcultured in 96-well tissue culture plates (Falcon 30072) in growth medium comprising minimal essential medium (Gibco, Grand Island, N.Y.) supplemented with 10% heat-inactivated fetal bovine serum, 600 μg/ml L-glutamine, 500 μg/ml penicillin and 500 μg/ml streptomycin for a 24-hour period at 37° C. in a humidified 5% CO2 /95% air atosphere. A nondividing, quiescent state of growth was achieved by subsequent incubation for 48 hours in growth medium supplemented with 0.5% fetal bovine serum. Quiescent cells were then stimulated to proliferate by the addition of fetal bovine serum (10 μl ) and test samples of TGF-β1, or TGF-β2 (50 μl). The cells were incubated an additional 66 hours at 37° C. […] The amount of cell growth was measured by the amount of radionuclide incorporated into the DNA of actively growing cells.
# [2] = test system: HEPM cells; experiment: Growth stimulation in monolayer monitored by cell counting; type: cell-based, human; details: 50 pM TGF-β1, 96 hours post-treatment
# Protocol: FIG. 2 Bioactivity of TGF-β on HEPM cells: cell proliferation. Cell counts were taken at 24 hour intervals until 120 hours post treatment. The data is presented as the number of cells per well vs incubation time (hours). By 96 hours, cultures treated with 50 pM TGF-β1, ( ) had reached a cell density twice that of untreated cultures ( ).
# Alternatively, growth stimulation in monolayer was monitored by cell counting. Cell monolayers were washed with PBS and then treated with 100 μl 0.25% trypsin solution at 37° C. until cells became detached from the culture surface. Fetal bovine serum (100 μl) was then added to each well to inhibit further action by trypsin. The resulting cell suspension was counted by the standard hemacytometer method. The viability of cells, greater than 98% in these examples, was determined by trypan blue dye-exclusion.
# [3] = biological target: T1, HEPM cell-surface receptors for TGF-β (Homo sapiens, UniProt Q03167); experiment: Radioreceptor assay: [125I]-iodo-TGF-β1 in competition with unlabeled TGF-β1, Scatchard analysis; type: binding; details: for Kd: untreated HEPM cells, Scatchard two-site model
# T1 construct: endogenous in cells; host or cells: HEPM (human embryonic palatal mesenchyme) cells, intact monolayers
# T1 sequence (Q03167 21-851): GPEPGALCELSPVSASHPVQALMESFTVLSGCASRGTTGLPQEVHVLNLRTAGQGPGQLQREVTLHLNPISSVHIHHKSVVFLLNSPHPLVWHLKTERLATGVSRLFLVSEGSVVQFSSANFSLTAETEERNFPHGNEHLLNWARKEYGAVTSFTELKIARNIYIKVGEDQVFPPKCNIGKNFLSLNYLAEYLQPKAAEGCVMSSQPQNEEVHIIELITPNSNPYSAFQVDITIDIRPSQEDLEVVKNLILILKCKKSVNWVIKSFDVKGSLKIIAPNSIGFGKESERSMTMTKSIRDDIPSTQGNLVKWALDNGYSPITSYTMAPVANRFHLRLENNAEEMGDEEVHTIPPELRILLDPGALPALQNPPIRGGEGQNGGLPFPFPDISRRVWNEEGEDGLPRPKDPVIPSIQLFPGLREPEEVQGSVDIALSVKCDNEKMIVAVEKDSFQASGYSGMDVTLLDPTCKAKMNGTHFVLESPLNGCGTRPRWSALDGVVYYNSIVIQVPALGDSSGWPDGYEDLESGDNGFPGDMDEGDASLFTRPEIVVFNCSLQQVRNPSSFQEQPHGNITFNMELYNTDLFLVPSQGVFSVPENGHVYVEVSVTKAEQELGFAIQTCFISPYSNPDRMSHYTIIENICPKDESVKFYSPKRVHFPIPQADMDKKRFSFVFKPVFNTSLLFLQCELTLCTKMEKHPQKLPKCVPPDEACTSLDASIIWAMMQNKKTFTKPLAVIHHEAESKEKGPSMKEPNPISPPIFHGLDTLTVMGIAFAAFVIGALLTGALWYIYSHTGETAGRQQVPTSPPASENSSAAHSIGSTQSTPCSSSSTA
# Protocol: (§1) HEPM cells were grown to confluence (1×10^5 cells/well) in 24-well Costar tissue culture plates. Prior to the binding assay, cells were pre-incubated in serum-free growth medium at 37° C. for 4 hours to allow for the dissociation of TGF-β from occupied cells surface receptors. The resulting monolayers were washed 2 times in binding buffer (Dulbecco's MEM+0.1% BSA+25 mM HEPES). 250 μl of binding buffer containing 0.5 μg/ml [^125 I]-iodoTGF-β1, (specific activity of 100 μCi/μg) together with increasing amounts of unlabeled TGF-β1 were added to duplicate wells. Steady state binding was carried out at 4° C. for 3 hours. After incubation cells were washed 3 times with cold binding buffer and solubilized in 200 μl of Triton solution (20 mM HEPES, 1% Triton X-100, 10% glycerol, 0.01% BSA, pH 7.4). Radioactivity was determined using a gamma spectrometer. Non-specific binding was determined in the presence of a 1,000-fold molar excess unlabeled TGF-β1.
# (§2) The radioreceptor assay described in Materials and Methods was used to characterize the affinity and number of cell-surface receptors for TGF-β on HEPM cells. Specific binding of [^125 I]-iodo-TGF-βin these assays was 20% of the total radioligand present. […] Half-maximal displacement of radioligand occurred at 100 pM (2.6 ng/ml) unlabeled TGF-β1. Competitive binding data were plotted according to the method of Scatchard (Scatchard, et al., 1947, Ann. NY Acad Sci 51:660-672) and the results are presented in FIG. 5. A distinctly curvilinear isotherm was obtained indicating the presence of at least two classes of binding sites on HEPM cells. […] Quantitative analysis determined that HEPM cells contain a total of 287,000 TGF-β receptors per cell (55,400 high affinity and 231,600 low affinity sites).
# [4] = test system: HEPM cell-surface receptors for TGF-β; experiment: as above; type: binding, human; details: comparison of growth stimulation and receptor occupancy, FIG. 6
# Protocol: as §1, §2
substance,measurement,setting,value
"TGF-β1: Transforming growth factor-Beta type 1; two identical disulfide linked subunits having molecular weights of 13,000; recombinant material used",ED50 in stimulating the proliferation of HEPM cells (half-maximal growth stimulation),[1],0.005 nM
same,cell density compared with untreated cultures,[2],twice
same,half-maximal displacement of radioligand,"[3]; unlabeled TGF-β1 vs [125I]-iodo-TGF-β1, 4° C., 3 hours",2.6 ng/mL
same,IC50,"[3]; unlabeled TGF-β1 vs [125I]-iodo-TGF-β1, 4° C., 3 hours, read-out: half-maximal displacement of radioligand / half-maximal receptor occupancy",0.1 nM
same,Kd,"[3]; read-out: kd, high-affinity (low capacity) site",0.058 nM
same,Kd,"[3]; read-out: kd, low-affinity (high capacity) site",0.898 nM
same,receptors occupied when full biological response is obtained,[4],20%
